Data on two molecules can be found in patent publication US20090318342A1, “Compounds” (IMPERIAL INNOVATIONS LIMITED, priority 2005, published 2009).

In experiment [1] the target is catalytic domain of membrane-type 1 MMP (MMP-14(CD)). As to the kind of experiment: Enzyme inhibition kinetic study, MMP-14. It counts as biochemical. As to conditions: Table I; enzyme 5 nM; pH 7.5; read-out: Ki(app) MMP-14(CD). The procedure:
FIG. 2. Inhibition of MMP and TACE by N-TIMP-3 and its mutants. A. Inhibition of MMP-14(CD) by wild-type and mutated N-TIMP-3. Open circles, wild-type N-TIMP-3; closed circles, T2G; and open squares, -1A. B. Comparison of the inhibition of TACE by wild-type N-TIMP-3, N-TIMP-1 and TAPI-2. The inhibitors were incubated with 0.5 nM TACE for 3 hr at room temperature, and the residual enzyme activity was measured with 10 μM Substrate III (R&D Systems). The assays were performed at pH 9.0 at a final NaCl concentration of 1 mM. Open circles, N-TIMP-3; closed circles, TAPI-2; and open squares, N-TIMP-1. C. Inhibition of TACE (0.5 nM) by wild-type and mutated N-TIMP-3. Open circles, wild-type inhibitor; closed circles, T2G; and open squares, -1A.
Enzyme inhibition kinetic studies—Inhibition kinetic studies for MMPs and TACE were carried out as described previously (19, 27) with modifications. Purified N-TIMP-3 and mutants were dialyzed against 20 mM Tris-HCl (pH 7.0), 50 mM NaCl containing 20% glycerol, centrifuged at 14,000 rpm for 10 min to remove any precipitate, and protein concentration was re-measured before conducting inhibition assays. […]
where v is the experimentally determined reaction velocity, v0 is the uninhibited activity, E is enzyme concentration, I is inhibitor concentration, K is the apparent inhibition constant (Ki^(app)) and h is the Hill coefficient. […]

In experiment [2] the test system is bovine nasal cartilage explants. Briefly: IL-1α-stimulated bovine nasal cartilage explants, GAG release. It counts as cell-based. To be noted: 3 days. On the procedure: (§1) GAG released into the conditioned media is measured in duplicate using a modification of the dimethylmethylene blue (DMMB) assay as described in Farndale et al.. Shark chondroitin sulfate (0-2.62 μg) is used as standard. The % of total GAG released into the medium is calculated as follows: % of total GAG released=(total GAG in the medium)/(total GAG in the medium+total GAG remaining in the cartilage).
Bovine nasal cartilage explants were stimulated with IL-1α in the presence or absence of N-TIMP-1, TIMP-2, or N-TIMP-3 for 3 days.

Experiment [3] concerns porcine articular cartilage. As to the kind of experiment: Retinoic acid-stimulated porcine articular cartilage, GAG release. It counts as cell-based. On the procedure: Porcine articular cartilage from the metacarpophalangeal joints of 3-9 month old pigs is dissected into small shavings approximately 3 mm long and 2-3 mm wide. After dissection, the cartilage is allowed to rest for 24 h at 37° C. under 5% CO2 in DMEM containing penicillin-streptomycin, amphotericin B, and 5% fetal calf serum. The medium is then replaced with fresh media and the cartilage is rested for a further 24-48 h. Each cartilage piece is then placed in one well of a round bottom 96-well plate with 200 μl of serum-free DMEM with or without 10-100 ng/ml IL-1α or 1 μM retinoic acid and various concentrations of each TIMP-3 mutant. After 3 days, all of the conditioned media are harvested and stored at −20° C. until use.
as §1

In experiment [4] the target is T1, full-length collagenase 1 (MMP-1) (Homo sapiens, UniProt P03956).
T1 construct: full-length collagenase 1 (MMP-1)
T1 sequence (P03956 100-469): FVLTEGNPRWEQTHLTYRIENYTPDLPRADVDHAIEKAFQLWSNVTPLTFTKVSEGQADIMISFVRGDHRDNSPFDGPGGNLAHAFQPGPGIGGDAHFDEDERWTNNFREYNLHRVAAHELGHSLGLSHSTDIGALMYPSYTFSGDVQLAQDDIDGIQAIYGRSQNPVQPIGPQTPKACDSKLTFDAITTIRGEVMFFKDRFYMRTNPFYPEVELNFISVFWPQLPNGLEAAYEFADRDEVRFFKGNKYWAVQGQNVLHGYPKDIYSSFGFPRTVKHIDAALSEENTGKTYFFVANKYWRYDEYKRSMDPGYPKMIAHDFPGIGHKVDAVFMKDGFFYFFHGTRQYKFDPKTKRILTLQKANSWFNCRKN
To be noted: Table I; data taken from ref. 8; read-out: Ki(app) MMP-1; cited from earlier work.

B1: -1A: N-TIMP-3 mutant with the addition of an N-terminal alanine extension (-1A) (protein)
chain: ACTCSPSHPQDAFCNSDIVIRAKVVGKKLVKEGPFGTLVYTIKQMKMYRGFTKMPHVQYIHTEASESLCGLKLEVNKYQYLLTGRVYDGKMYTGLCNFVERWDQLTLSQRKGLNYRYHLGCN
On to B1, for which the Ki in experiment [1] amounted to 941 ± 206 nM.

B2: N-TIMP-3: N-terminal inhibitory domain of TIMP-3 (residues 1 to 121), C-terminally His-tagged, wild-type (protein)
chain: CTCSPSHPQDAFCNSDIVIRAKVVGKKLVKEGPFGTLVYTIKQMKMYRGFTKMPHVQYIHTEASESLCGLKLEVNKYQYLLTGRVYDGKMYTGLCNFVERWDQLTLSQRKGLNYRYHLGCN
In the case of B2, in experiment [2], the “Inhibition of IL-1α-stimulated GAG release” value was “significantly inhibited”. The “Inhibition of retinoic acid-stimulated GAG release” value in experiment [3] is given as “inhibited by N-TIMP-3, but to a lesser extent compared with the IL-1α-stimulated cartilage”. In experiment [4], the Ki is 1.2 ± 0.5 nM.
